Assay results taken from PMC9637222 (2022).

Assays:
Assay in all cases: ITC
[1] = molecular target: T1, InvF (tag-free, purified) (S. Typhimurium, UniProt P69343 1-216)
T1 chain: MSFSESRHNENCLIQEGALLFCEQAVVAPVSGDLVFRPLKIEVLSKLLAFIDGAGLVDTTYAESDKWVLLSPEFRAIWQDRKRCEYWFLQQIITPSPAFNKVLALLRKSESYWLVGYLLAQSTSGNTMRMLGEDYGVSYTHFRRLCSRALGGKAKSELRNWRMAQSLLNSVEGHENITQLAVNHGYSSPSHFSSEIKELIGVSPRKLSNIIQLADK

[2] = molecular target: T2, SipC (tag-free, purified) (S. Typhimurium, UniProt P0CL47 1-409)
T2 chain: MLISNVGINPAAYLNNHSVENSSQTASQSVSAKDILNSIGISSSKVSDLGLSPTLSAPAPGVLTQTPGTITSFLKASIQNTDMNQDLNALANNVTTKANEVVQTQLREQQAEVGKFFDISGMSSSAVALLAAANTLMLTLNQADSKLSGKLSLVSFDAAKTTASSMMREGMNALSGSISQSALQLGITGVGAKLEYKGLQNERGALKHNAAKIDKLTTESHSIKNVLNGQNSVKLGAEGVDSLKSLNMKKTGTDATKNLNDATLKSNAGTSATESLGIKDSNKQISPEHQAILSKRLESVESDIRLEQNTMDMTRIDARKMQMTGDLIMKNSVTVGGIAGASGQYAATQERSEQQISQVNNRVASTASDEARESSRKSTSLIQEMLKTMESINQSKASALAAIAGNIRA

[3] = molecular target: T3, SipB (tag-free, purified) (S. Typhimurium, UniProt Q56019 1-593)
T3 chain: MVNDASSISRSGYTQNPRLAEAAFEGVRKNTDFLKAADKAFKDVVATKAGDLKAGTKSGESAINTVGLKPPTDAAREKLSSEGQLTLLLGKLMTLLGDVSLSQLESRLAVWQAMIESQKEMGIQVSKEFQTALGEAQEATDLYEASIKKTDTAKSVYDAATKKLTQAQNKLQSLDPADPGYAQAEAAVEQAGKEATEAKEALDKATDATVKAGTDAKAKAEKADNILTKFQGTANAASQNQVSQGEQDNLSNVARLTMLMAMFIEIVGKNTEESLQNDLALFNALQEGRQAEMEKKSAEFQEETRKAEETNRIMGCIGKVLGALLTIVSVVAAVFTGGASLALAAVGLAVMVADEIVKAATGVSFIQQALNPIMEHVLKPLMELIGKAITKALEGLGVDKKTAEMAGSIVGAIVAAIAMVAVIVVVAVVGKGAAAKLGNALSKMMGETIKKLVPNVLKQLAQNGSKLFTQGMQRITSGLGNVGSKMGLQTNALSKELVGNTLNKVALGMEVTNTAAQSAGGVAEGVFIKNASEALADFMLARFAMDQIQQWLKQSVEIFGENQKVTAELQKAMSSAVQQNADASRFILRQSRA

B1: SicA (tag-free, purified) (natural protein)
chain: MDYQNNVSEERVAEMIWDAVSEGATLKDVHGIPQDMMDGLYAHAYEFYNQGRLDEAETFFRFLCIYDFYNPDYTMGLAAVCQLKKQFQKACDLYAVAFTLLKNDYRPVFFTGQCQLLMRKAAKARQCFELVNERTEDESLRAKALVYLEALKTAETEQHSEQEKE
B1 gave a Kd [1] of 460 nM, a Kd [2] of 610 nM and a Kd [3] of 530 nM.
